Data on 1 molecule can be found in US20120135912A1 (PERSEID THERAPEUTICS, published 2012).

This experiment deals with T1, human VLA4-Fc (alpha4-Fc/beta1-Fc heterodimer) (human).
T1 construct: Soluble heterodimer from CHO cells, Protein A purified; also called VLA-Fc
The experiment is described as follows: SPR (BIACORE), VLA4-Fc captured by anti-human IgG, 1 mM MnCl2, 1:1 Langmuir; standard BIACORE assay, first preparation (Table 5A); KD ratio relative to human 2D-VCAM-1. As to the method:
The kinetic 2D-VCAM-1 assay measures binding kinetics of a dimeric ligand (e.g., VLA-Fc fusion protein or LPAM-1-Fc fusion protein) coated to sensor chips and monomeric analyte (e.g., 2D-VCAM-1 variant polypeptides) in the mobile phase. Goat anti-human IgG antibody (Jackson ImmunoResearch, Catalog No. 105-005-098) was immobilized on CM-5 sensor chips (GE Healthcare, Catalog No. BR-1000-14) according to the manufacturer's protocol. Antibody was diluted to 30 μg/ml in immobilization buffer (10 mM sodium acetate, pH 5.0 (GE Healthcare, Catalog No. BR-1003-51)). […] Un-reacted sites were quenched with 35 μl of 1 M ethanolamine-HCl pH 8.5 (GE Healthcare, Catalog No. BR-1000-50). This procedure typically yielded 15,000 response units (RU) of coupled antibody. VLA4-Fc or LPAM-1-Fc, prepared as described in Examples 3 and 4, respectively, were bound to antibody-coated sensor chips by injection of 20 μl of ligand solution (20 μg/ml protein in HBS-P-Mn buffer at a flow rate of 10 μl/min). Ligand capture levels were typically 200-300 RU. […] Typically, 8 dilutions of 2D-VCAM-1 variant polypeptides ranging from 150 nM to 0.069 nM were analyzed against a blank reference (HBS-P-Mn buffer alone).
A general note: Surface plasmon resonance follows binding to a sensor surface in real time, without labels.

T1 sequence (chain, as listed by the source limits assumed, form in doubt, chain 1 of 2): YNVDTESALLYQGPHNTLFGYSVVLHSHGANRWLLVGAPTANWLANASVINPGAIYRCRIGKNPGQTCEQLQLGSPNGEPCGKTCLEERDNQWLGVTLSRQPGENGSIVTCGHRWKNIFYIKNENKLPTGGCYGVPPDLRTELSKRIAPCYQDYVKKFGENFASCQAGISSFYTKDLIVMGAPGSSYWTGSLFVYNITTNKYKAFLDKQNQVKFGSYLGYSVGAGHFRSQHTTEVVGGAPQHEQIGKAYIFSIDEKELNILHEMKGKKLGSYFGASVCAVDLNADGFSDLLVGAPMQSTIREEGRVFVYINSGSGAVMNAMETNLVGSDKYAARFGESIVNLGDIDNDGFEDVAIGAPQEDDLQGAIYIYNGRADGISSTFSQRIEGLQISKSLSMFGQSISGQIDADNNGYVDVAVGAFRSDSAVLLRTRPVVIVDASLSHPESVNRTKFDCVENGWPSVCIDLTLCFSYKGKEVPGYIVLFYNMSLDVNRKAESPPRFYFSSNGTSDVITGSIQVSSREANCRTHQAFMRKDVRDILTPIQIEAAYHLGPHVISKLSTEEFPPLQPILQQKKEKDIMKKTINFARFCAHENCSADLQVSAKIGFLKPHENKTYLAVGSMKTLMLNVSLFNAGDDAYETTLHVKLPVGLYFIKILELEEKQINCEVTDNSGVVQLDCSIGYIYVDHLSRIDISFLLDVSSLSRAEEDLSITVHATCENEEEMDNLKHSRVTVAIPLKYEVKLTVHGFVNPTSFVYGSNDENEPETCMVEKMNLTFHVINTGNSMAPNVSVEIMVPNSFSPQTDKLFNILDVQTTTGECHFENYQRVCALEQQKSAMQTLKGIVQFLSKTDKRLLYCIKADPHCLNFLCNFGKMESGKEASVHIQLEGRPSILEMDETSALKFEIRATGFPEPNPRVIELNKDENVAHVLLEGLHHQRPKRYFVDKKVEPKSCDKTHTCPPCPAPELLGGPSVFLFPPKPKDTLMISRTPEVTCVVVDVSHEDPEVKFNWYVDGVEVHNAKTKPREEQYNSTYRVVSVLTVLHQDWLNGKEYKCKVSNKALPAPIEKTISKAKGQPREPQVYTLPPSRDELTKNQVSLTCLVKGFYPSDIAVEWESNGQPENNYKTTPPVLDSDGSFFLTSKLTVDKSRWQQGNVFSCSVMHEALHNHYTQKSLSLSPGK
T1 sequence (chain, as listed by the source limits assumed, form in doubt, chain 2 of 2): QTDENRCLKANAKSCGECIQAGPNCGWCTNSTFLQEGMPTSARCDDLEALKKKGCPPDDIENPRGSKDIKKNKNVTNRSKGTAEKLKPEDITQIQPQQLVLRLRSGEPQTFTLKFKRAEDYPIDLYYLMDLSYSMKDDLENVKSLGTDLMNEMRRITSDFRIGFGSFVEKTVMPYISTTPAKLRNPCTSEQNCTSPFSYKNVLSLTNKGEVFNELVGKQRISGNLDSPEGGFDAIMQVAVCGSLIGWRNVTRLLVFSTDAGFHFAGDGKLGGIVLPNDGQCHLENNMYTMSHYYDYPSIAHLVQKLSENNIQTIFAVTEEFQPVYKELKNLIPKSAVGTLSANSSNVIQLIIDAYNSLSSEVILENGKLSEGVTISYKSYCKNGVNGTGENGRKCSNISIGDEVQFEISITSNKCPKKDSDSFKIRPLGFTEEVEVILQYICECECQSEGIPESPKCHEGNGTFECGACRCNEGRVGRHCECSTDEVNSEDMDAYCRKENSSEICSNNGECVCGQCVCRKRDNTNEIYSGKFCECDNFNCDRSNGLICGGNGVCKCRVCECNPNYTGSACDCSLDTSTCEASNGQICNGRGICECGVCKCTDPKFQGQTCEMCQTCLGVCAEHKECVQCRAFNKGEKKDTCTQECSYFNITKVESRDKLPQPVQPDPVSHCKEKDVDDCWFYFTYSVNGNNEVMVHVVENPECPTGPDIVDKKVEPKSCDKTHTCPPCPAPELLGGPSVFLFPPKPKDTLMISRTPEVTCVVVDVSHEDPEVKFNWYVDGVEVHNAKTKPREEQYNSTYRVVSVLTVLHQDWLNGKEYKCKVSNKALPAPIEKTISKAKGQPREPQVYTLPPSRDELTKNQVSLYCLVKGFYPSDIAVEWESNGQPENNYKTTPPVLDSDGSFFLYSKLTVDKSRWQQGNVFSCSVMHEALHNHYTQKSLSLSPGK

B1: 2D-VCAM-1 variant Clone 146 (ligand, not shown: small tags and cut ends)
chain: FKIETTPESRYLAQIGDSVSLTCSTTGCESPLFFWRPLLDSPLNGKVTNEGTTSTLTMNPVSFGNEHSYLCTARCESRSLEKGIQVEIYSFPKDPEIHLSGPLEAGKPITVKCSVADVYPFDRLEIDLLKGDHLMKSQEFLEDADRKSLETKSLEVTFTPVIEDIGKVLVCRAKLHIDEMDSVPTVRQAVKELQVYISP
On to B1, for which the “binding affinity for VLA4-Fc relative to human 2D-VCAM-1” value is 306 fold.
